Our source for the stoichiometry N values is article PMC10879482.

Assay [1] deals with human SIDT1 (hSIDT1) (human) (UniProt Q9NXL6). The experiment in a line: cryo-EM structure; hSIDT1 at pH 5.5 (hSIDT1^pH5.5); homodimer, dimer interface rearranged against pH 7.5.
For assay [2] the target is unchanged. The assay can be described thus: cryo-EM structure; hSIDT1 at pH 7.5 (hSIDT1^pH7.5); cholesteryl hemisuccinate in the buffer during membrane solubilization; homodimer.

As to “human SIDT1 (hSIDT1) (from UniProt Q9NXL6 20-827) (natural protein)”, the stoichiometry N in assay [1] and in assay [2] was 2 each time.
